The results in this text go back to PMC4389572.

This experiment has as its target C3G-based poly-Pro peptide ligand. The experiment in a line: other fluorescence titration; fluorescence-based titration assay as described in Camarero et al., 2001b; conditions not given here.

B1: SH3_(circ-wt), backbone-cyclized N-terminal SH3 domain of c-Crk (Cys-Gly + residues 134-191) (domain or fragment)
chain: CGAEYVRALFDFNGNDEEDLPFKKGDILRIRDKPEEQWWNAEDSEGKRGMIPVPYVEKYG
modifications: backbone cyclized: cyclo-[...], peptide bond between the N-terminal Cys and the C-terminal Gly191
By Kd is commonly meant the constant that tells how readily two partners part at equilibrium. Read a high Kd as a looser complex. B1 registered a Kd of 890 nM.

B2: SH3_(lin-wt), linear N-terminal SH3 domain of c-Crk (residues 134-190 with an additional Gly191) (domain or fragment)
chain: AEYVRALFDFNGNDEEDLPFKKGDILRIRDKPEEQWWNAEDSEGKRGMIPVPYVEKYG
In turn, B2 yielded a Kd of 870 nM.

B3: SH3_(circ-GΔ), backbone-cyclized N-terminal SH3 domain of c-Crk lacking Ala134 and Glu135 (Cys-Gly + residues 136-191) (domain or fragment)
chain: CGYVRALFDFNGNDEEDLPFKKGDILRIRDKPEEQWWNAEDSEGKRGMIPVPYVEKYG
modifications: backbone cyclized: cyclo-[...], peptide bond between the N-terminal Cys and the C-terminal Gly191
On to B3, for which the dissociation constant Kd is 470 nM. This Kd is about 1.9-fold lower than that of the molecule before.

B4: SH3_(circ-Δ), backbone-cyclized N-terminal SH3 domain of c-Crk lacking Ala134 and Glu135 (Cys + residues 136-191) (domain or fragment)
chain: CYVRALFDFNGNDEEDLPFKKGDILRIRDKPEEQWWNAEDSEGKRGMIPVPYVEKYG
modifications: backbone cyclized: cyclo-[...], peptide bond between the N-terminal Cys and the C-terminal Gly191
For the molecule B4, the Kd was found to be 430 nM.
